According to patent US20250250357A1:
Each block holds one substance with its values, some of them ahead of it.

Experiments:
[1] = target: human MSLN-R2-his protein (human) (UniProt Q13421); test: ELISA, coated MSLN-R2
[2] = target: human MSLN-FL-his protein (human) (UniProt Q13421); test: ELISA on coated antigen, antibody 0.01 nM
[3] = target: human MSLN-R3-3 polypeptide (human); test: ELISA on coated antigen, antibody 0.01 nM
[4] = target: human MSLN-FL-his protein (human) (UniProt Q13421); test: ELISA on coated antigen, no antibody (blank, column 'none')
[5] = target: human MSLN-R3-3 polypeptide (human); test: ELISA, coated MSLN-R3-3
[6] = target: human MSLN-R3-his protein (human) (UniProt Q13421); test: ELISA on coated antigen, antibody 0.0002 nM
[7] = target: human MSLN-R2-his protein (human) (UniProt Q13421); test: ELISA on coated antigen, antibody 0.0002 nM
[8] = target: human MSLN-R3-3 polypeptide (human); test: ELISA, coated antigen; antibody 0.001 nM
[9] = target: human MSLN-R3-3 polypeptide (human); test: ELISA on coated antigen, antibody 0.0001 nM
[10] = target: human MSLN-R3-3 polypeptide (human); test: ELISA on coated antigen, antibody 10 nM
[11] = target: human MSLN-R3-3 polypeptide (human); test: ELISA, coated antigen; antibody 0.0001 nM
[12] = target: human MSLN-FL-his protein (human) (UniProt Q13421); test: ELISA on coated antigen, antibody 0.1 nM
[13] = target: human MSLN-R3-3 polypeptide (human); test: ELISA on coated antigen, antibody 0.1 nM
[14] = target: human MSLN-R3-3 polypeptide (human); test: ELISA on coated antigen, no antibody (column none)
[15] = target: human MSLN-R3-3 polypeptide (human); test: ELISA on coated antigen, antibody 0.001 nM
[16] = target: human MSLN-R3-3 polypeptide (human); test: ELISA, coated antigen; no antibody (blank, column 'none')
[17] = target: human MSLN-FL-his protein (human) (UniProt Q13421); test: ELISA on coated antigen, antibody 1 nM
[18] = target: human MSLN-R3-3 polypeptide (human); test: ELISA on coated antigen, antibody 1 nM
[19] = target: human MSLN-FL-his protein (human) (UniProt Q13421); test: ELISA on coated antigen, antibody 100 nM
[20] = target: human MSLN-R3-3 polypeptide (human); test: ELISA on coated antigen, antibody 100 nM
[21] = target: human MSLN full-length protein (NCBI: AAH09272.1) on stably transfected CHO-K1 or HEK293T cells (human) (UniProt Q13421); test: FACS on CHO-K1-hMSLN-2C8 cells; antibody 0.8 nM
[22] = target: monkey MSLN full-length protein (NCBI: XP_028696439.1) on HEK293T cells (monkey); test: FACS on HEK293T-monkey MSLN cells; antibody 20 nM
[23] = target: human MSLN full-length protein (NCBI: AAH09272.1) on stably transfected CHO-K1 or HEK293T cells (human) (UniProt Q13421); test: FACS on CHO-K1-hMSLN-2C8 cells; antibody 20 nM
[24] = target: human MSLN protein, endogenously expressed on Hela and OVCAR3 cells (human) (UniProt Q13421); test: FACS on OVCAR3 cells; antibody […]
[25] = target: human MSLN full-length protein (NCBI: AAH09272.1) on stably transfected CHO-K1 or HEK293T cells (human) (UniProt Q13421); test: FACS on CHO-K1-hMSLN-2C8 cells; antibody 0.00128 nM
[26] = target: human MSLN protein, endogenously expressed on Hela and OVCAR3 cells (human) (UniProt Q13421); test: FACS on OVCAR3 cells; antibody 4 nM
[27] = target: monkey MSLN full-length protein (NCBI: XP_028696439.1) on HEK293T cells (monkey); test: FACS on HEK293T-monkey MSLN cells; antibody 0.8 nM
[28] = target: human MSLN protein, endogenously expressed on Hela and OVCAR3 cells (human) (UniProt Q13421); test: FACS on OVCAR3 cells; antibody 0.0064 nM
[29] = target: human MSLN protein, endogenously expressed on Hela and OVCAR3 cells (human) (UniProt Q13421); test: FACS on OVCAR3 cells; antibody 20 nM
[30] = target: human MSLN full-length protein (NCBI: AAH09272.1) on stably transfected CHO-K1 or HEK293T cells (human) (UniProt Q13421); test: FACS on CHO-K1-hMSLN-2C8 cells; antibody 4 nM
[31] = target: human MSLN protein, endogenously expressed on Hela and OVCAR3 cells (human) (UniProt Q13421); test: FACS on OVCAR3 cells; antibody 0.00128 nM
[32] = target: human MSLN protein, endogenously expressed on Hela and OVCAR3 cells (human) (UniProt Q13421); test: FACS on OVCAR3 cells; antibody 0.032 nM
[33] = target: monkey MSLN full-length protein (NCBI: XP_028696439.1) on HEK293T cells (monkey); test: FACS on HEK293T-monkey MSLN cells; antibody 0.00128 nM
[34] = target: human MSLN protein, endogenously expressed on Hela and OVCAR3 cells (human) (UniProt Q13421); test: FACS on OVCAR3 cells; antibody 100 nM
[35] = target: human MSLN full-length protein (NCBI: AAH09272.1) on stably transfected CHO-K1 or HEK293T cells (human) (UniProt Q13421); test: FACS on CHO-K1-hMSLN-2C8 cells; antibody 0.032 nM
[36] = target: human MSLN-R3-3 polypeptide (human); test: ELISA; antibody 1 nM
[37] = target: monkey MSLN full-length protein (NCBI: XP_028696439.1) on HEK293T cells (monkey); test: FACS on HEK293T-monkey MSLN cells; antibody 100 nM
[38] = target: human MSLN protein, endogenously expressed on Hela and OVCAR3 cells (human) (UniProt Q13421); test: FACS on OVCAR3 cells; antibody 0.8 nM
[39] = target: monkey MSLN full-length protein (NCBI: XP_028696439.1) on HEK293T cells (monkey); test: FACS on HEK293T-monkey MSLN cells; antibody 4 nM
[40] = target: human MSLN full-length protein (NCBI: AAH09272.1) on stably transfected CHO-K1 or HEK293T cells (human) (UniProt Q13421); test: FACS on CHO-K1-hMSLN-2C8 cells; antibody […]
[41] = target: monkey MSLN full-length protein (NCBI: XP_028696439.1) on HEK293T cells (monkey); test: FACS on HEK293T-monkey MSLN cells; antibody […]
[42] = target: monkey MSLN full-length protein (NCBI: XP_028696439.1) on HEK293T cells (monkey); test: FACS on HEK293T-monkey MSLN cells; antibody 0.032 nM
[43] = target: monkey MSLN full-length protein (NCBI: XP_028696439.1) on HEK293T cells (monkey); test: FACS on HEK293T-monkey MSLN cells; antibody 0.0064 nM
[44] = target: human MSLN full-length protein (NCBI: AAH09272.1) on stably transfected CHO-K1 or HEK293T cells (human) (UniProt Q13421); test: FACS on CHO-K1-hMSLN-2C8 cells; antibody 0.0064 nM
[45] = target: human MSLN full-length protein (NCBI: AAH09272.1) on stably transfected CHO-K1 or HEK293T cells (human) (UniProt Q13421); test: FACS on CHO-K1-hMSLN-2C8 cells; antibody 100 nM

Sequence of human MSLN-FL-his protein (human) (Q13421 other isoform, or with tags, fused parts or gaps): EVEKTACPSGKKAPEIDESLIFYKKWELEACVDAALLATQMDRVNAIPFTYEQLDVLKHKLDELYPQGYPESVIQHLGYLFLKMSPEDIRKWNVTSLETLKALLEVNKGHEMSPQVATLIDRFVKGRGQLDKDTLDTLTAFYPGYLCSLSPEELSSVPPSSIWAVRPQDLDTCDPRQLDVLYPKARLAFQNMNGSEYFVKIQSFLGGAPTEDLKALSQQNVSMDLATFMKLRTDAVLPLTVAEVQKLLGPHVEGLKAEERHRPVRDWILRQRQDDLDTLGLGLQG
Sequence of human MSLN protein, endogenously expressed on Hela and OVCAR3 cells (human) (Q13421 other isoform, or with tags, fused parts or gaps): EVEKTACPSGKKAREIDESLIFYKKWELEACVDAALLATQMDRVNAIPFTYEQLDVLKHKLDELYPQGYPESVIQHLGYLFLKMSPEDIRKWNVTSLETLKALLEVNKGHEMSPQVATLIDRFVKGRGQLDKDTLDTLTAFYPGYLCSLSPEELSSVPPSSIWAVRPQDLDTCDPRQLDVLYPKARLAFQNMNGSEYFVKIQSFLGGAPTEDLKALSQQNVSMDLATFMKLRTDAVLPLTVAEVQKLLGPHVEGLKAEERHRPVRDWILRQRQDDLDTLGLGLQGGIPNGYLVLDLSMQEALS
Sequence of human MSLN-R2-his protein (human) (Q13421 other isoform, or with tags, fused parts or gaps): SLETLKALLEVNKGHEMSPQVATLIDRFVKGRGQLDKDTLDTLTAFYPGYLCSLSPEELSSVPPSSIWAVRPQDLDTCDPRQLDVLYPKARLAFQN
Sequence of human MSLN-R3-his protein (human) (Q13421 495-606): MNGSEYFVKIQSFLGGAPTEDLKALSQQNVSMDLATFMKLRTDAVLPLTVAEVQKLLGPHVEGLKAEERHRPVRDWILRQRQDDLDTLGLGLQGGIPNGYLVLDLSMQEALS

OD450 at 0.0001 nM [1]: 0.03 OD450
Substance: Tab108 (YP218, scFv-hIgG1 Fc) (Fc fusion)

OD450 [2]: 0.04 OD
OD450 [3]: 0.05 OD450
OD450 [4]: 0.04 OD
OD450 at 0.0001 nM [5]: 0.07 OD450
OD450 at 0.001 nM [5]: 0.07 OD450
OD450 at 0.01 nM [5]: 0.06 OD450
OD450 at 0.1 nM [5]: 0.06 OD450
OD450 at 1 nM [5]: 0.06 OD450
OD450 at 10 nM [5]: 0.07 OD450
OD450 at none (no antibody) [5]: 0.08 OD450
OD450 [6]: 0.33 OD
OD450 [7]: 0.52 OD
OD450 [8]: 0.08 OD450
OD450 [9]: 0.05 OD450
OD450 [10]: 0.05 OD450
OD450 [11]: 0.07 OD450
OD450 [12]: 0.04 OD
OD450 [13]: 0.05 OD450
OD450 [14]: 0.05 OD450
OD450 [15]: 0.05 OD450
OD450 [16]: 0.07 OD450
OD450 [17]: 0.04 OD
OD450 [18]: 0.05 OD450
OD450 [19]: 0.1 OD450
OD450 [20]: 0.06 OD450
Substance: anti-hel-hIgG1 (antibody)

FACS fluorescence intensity [21]: 80
FACS fluorescence intensity [22]: 84
FACS fluorescence intensity [23]: 156
FACS fluorescence intensity [24]: 74
FACS fluorescence intensity [25]: 116
FACS fluorescence intensity [26]: 74
FACS fluorescence intensity [27]: 87
FACS fluorescence intensity [28]: 74
FACS fluorescence intensity [29]: 78
FACS fluorescence intensity [30]: 110
FACS fluorescence intensity [31]: 75
FACS fluorescence intensity [32]: 75
FACS fluorescence intensity [33]: 84
FACS fluorescence intensity [34]: 93
FACS fluorescence intensity [35]: 59
OD450 nm [36]: 0.06
FACS fluorescence intensity [37]: 127
FACS fluorescence intensity [38]: 76
FACS fluorescence intensity [39]: 85
FACS fluorescence intensity [40]: 59
FACS fluorescence intensity [41]: 85
FACS fluorescence intensity [42]: 125
FACS fluorescence intensity [43]: 85
FACS fluorescence intensity [44]: 65
FACS fluorescence intensity [45]: 72
Substance: hIgG1 (human IgG1 subtype control of Example 1) (antibody)
